Results taken from PMC12820974, “Zinc-Mediated Loading and Release of His-Tagged Recombinant Proteins in Self-Assembling Peptide Coacervates” (ACS Applied Bio Materials, 2025).

Columns and labels:
[1] = target: EAKH6 self-assembling peptide (EAK16-II with a C-terminal hexa-histidine tag)
[2] = target: EAKH6 self-assembling peptide (EAK16-II with a C-terminal hexa-histidine tag); remark: listed apart in the source
[3] = target: the molecule itself; assay: Congo red staining (fluorescence microscopy and UV-vis absorbance); EAKH6 alone and with Zn2+ at molar ratios 1:20 to 20:1, incubated with Congo red in PBS overnight at room temperature; fibrils imaged, shift of absorbance from 500 to 540 nm

Row | Molecule | in vitro release of HisGFP from Ca2+:EAKH6 (10:1, without Zn2+) coacervates, control; released in 5 days [1] [%] | apparent diffusion (D app) of HisGFP out of Ca2+:EAKH6 coacervates (without Zn2+), control, from the release up to 8 h [2] [m^2 s^-1] | apparent diffusion (D app) of HisGFP out of Zn2+:EAKH6 coacervates, from the release up to 8 h [2] [m^2 s^-1] | binding result [3]
1 | Green Fluorescent Protein coexpressed with a hexahistidine tag | 98 | 2.07e-11 | 6.7e-12 | 
2 | Ac-AEAEAKAKAEAEAKAKHHHHHH-NH2 (hexa-histidine tag (H6) at the C-terminus; written as a part because Zn2+ bridges it to the His tag of the cargo protein; In the assays the peptide stood as self-assembled fibrils (coacervate), with ZnCl2 or CaCl2 where said; also called Zn2+:EAKH6 (its coacervate with zinc); Ca2+:EAKH6 (with calcium); source: synthetic peptide, custom-synthesized by Biomatek (>95% purity by HPLC)) [EAKH6 self-assembling peptide (EAK16-II with a C-terminal hexa-histidine tag)] |  |  |  | binds
